Assay [1] addresses REFACTO® (recombinant factor VIII-like polypeptide consisting of amino acids 1-743 and 1638 through 2332 of human factor VIII) (human) (UniProt P00451). Description: phage ELISA on the factor VIII target (REFACTO), anti-M13-HRP.
For assay [2] the target is unchanged. Description: affinity column, peptide on Toyopearl Formyl 650-M; fraction quantified by factor VIII activity assay.
Assay [3] shares this target. The experiment in a line: affinity column, peptide on Toyopearl Formyl 650-M; fraction quantified by RP-HPLC.
For assay [4] the target is unchanged. The experiment in a line: phage ELISA, ratio with target to without target.
Assay [5] shares this target. Description: batch binding to peptide beads; fractions by sandwich ELISA; % of input.
Assay [6] has the same target. The experiment in a line: batch binding to peptide beads; fractions by sandwich ELISA; % of total recovered.

Positions of bridges follow the written chain, without caps; N, C: chain ends. No end group written: not given here. *: point of attachment. NHNH2 = NN*

REFACTO® (recombinant factor VIII-like polypeptide consisting of amino acids 1-743 and 1638 through 2332 of human factor VIII) (human), sequence (P00451 20-762, chain 1 of 2): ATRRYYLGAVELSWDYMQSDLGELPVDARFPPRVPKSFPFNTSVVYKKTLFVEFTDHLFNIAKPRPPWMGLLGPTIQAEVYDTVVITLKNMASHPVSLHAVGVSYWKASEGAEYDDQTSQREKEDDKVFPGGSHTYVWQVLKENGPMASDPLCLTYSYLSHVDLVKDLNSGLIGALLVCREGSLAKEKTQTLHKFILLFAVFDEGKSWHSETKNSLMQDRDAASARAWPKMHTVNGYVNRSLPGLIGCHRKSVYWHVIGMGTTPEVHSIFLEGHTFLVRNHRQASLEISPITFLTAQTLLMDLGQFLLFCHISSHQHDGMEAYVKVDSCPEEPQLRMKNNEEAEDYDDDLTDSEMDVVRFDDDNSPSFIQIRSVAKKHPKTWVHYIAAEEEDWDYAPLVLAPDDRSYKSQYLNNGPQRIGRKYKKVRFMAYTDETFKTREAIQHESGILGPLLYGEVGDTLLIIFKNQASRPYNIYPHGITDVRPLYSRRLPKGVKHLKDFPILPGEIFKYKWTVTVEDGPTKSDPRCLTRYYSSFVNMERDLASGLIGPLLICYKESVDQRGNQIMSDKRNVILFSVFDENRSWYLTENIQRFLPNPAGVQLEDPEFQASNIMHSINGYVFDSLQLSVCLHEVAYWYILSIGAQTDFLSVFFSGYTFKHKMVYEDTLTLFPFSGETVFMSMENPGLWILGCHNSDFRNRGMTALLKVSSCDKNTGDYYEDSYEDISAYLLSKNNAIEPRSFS
REFACTO® (recombinant factor VIII-like polypeptide consisting of amino acids 1-743 and 1638 through 2332 of human factor VIII) (human), sequence (P00451 1657-2351, chain 2 of 2): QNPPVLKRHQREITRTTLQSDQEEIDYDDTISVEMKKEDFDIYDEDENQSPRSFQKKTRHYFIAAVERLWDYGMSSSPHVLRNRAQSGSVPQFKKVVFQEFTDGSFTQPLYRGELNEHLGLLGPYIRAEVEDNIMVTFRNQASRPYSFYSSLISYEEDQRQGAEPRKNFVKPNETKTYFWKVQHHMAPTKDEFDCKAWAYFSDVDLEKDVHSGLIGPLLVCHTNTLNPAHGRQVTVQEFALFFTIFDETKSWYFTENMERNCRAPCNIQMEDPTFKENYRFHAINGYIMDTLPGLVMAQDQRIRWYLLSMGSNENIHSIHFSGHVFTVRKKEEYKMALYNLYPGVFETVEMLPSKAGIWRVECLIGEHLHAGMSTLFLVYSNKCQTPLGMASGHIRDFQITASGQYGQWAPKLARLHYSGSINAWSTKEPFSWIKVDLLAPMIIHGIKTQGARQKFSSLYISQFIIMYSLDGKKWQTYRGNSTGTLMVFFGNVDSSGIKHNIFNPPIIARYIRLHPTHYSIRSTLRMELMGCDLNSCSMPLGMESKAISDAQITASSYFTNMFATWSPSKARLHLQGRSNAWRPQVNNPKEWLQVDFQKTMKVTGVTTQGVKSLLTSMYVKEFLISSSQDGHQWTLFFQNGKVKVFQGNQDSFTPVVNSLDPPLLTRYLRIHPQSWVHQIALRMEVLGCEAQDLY

As to HPCGAWFNPCPR [TN8 phage isolate 01 (SEQ ID NO: 19)], in assay [1], the ELISA signal amounted to 0.2 OD630.

Turning to AEGTGDFCWVFPFQHCADPGPEGGGS-NHNH2 (disulfide 8-16 (inferred)) [CS-459 (…-NHNH2)], in assay [2], the % recovery in Flow is 6.4% and the % recovery in elution A was 31.2%. In assay [3], the % recovery in Flow came to 1.6%, the % recovery in elution A was 42.1%, the % recovery in elution B was determined as 0% and the % recovery in pH2 turned out to be 0%.

On to HSCGSWLFPCFA [TN7 phage isolate A06], for which the R (ELISA score with target / ELISA score without target) in assay [4] worked out at 10. For the same molecule, the ELISA signal in assay [1] was determined as 0.5 OD630.

Regarding AEGTGDHLCGAWFRPCDADPGPEGGGS-NHNH2 (disulfide 9-16) [CS-454 (…-NHNH2)], in assay [5], the % of input recovered in Eluate amounted to 49%, the % of input recovered in Unbound was 24% and the % of input recovered in Wash worked out at 12%. Besides, in assay [2], the % recovery in Flow came out at 2.2% and the % recovery in elution A amounted to 42.4%. Further, in assay [3], the % recovery in Flow stood at 2.5%, the % recovery in elution A was found to be 45.1%, the % recovery in elution B amounted to 0% and the % recovery in pH2 amounted to 0%.

Take AEGTGDFGCSWLFPCPFDPGPEGGGS-NHNH2 (disulfide 9-15) [CS-456 (…-NHNH2)]: in assay [5], the % of input recovered in Eluate was 24%, the % of input recovered in Unbound is 47% and the % of input recovered in Wash came to 20%. For the same molecule, in assay [2], the % recovery in Flow worked out at 4.8% and the % recovery in elution A turned out to be 43%. Moreover, in assay [3], the % recovery in Flow worked out at 3.4%, the % recovery in elution A stood at 44.8%, the % recovery in elution B was found to be 0% and the % recovery in pH2 was determined as 0%.

For the molecule RLCSWISPCSA [TN7 phage isolate D04], in assay [4], the R (ELISA score with target / ELISA score without target) was found to be 6. Further, in assay [1], the ELISA signal is 0.3 OD630.

With FCWVFNWVHCD [TN9/1 phage isolate … (SEQ ID NO: 75)], in assay [4], the R (ELISA score with target / ELISA score without target) worked out at 14.

On to HGCGAWFRPCHA [TN8 phage isolate 01 (SEQ ID NO: 18)], for which the ELISA signal in assay [1] amounted to 0.2 OD630.

In the case of FCWVFQFRHCH [TN9/1 phage isolate … (SEQ ID NO: 77)], the R (ELISA score with target / ELISA score without target) in assay [4] was 8.

On to FCWVHPFAHCL [TN9 phage isolate 02 (SEQ ID NO: 23)], for which the ELISA signal in assay [1] came out at 0.2 OD630.

On to HPCGSWLHPCAA [TN8 phage isolate 04 (SEQ ID NO: 12)], for which the R (ELISA score with target / ELISA score without target) in assay [4] was 6. In assay [1], the ELISA signal turned out to be 0.3 OD630.

Take RGCGSWLRPCLD [TN8 phage isolate 05 (SEQ ID NO: 11)]: the ELISA signal in assay [1] was 0.2 OD630.

Regarding HLCFAWFRPCDA [TN8 phage isolate 12 (SEQ ID NO: 17)], the R (ELISA score with target / ELISA score without target) in assay [4] turned out to be 8. Moreover, in assay [1], the ELISA signal stood at 0.4 OD630.

On to FCHVFPFLHCD [TN9 phage isolate 11 (SEQ ID NO: 32)], for which the ELISA signal in assay [1] amounted to 0.2 OD630.

As for FCWVFPFHHCF [TN9 phage isolate 06 (D06-TN9)], in assay [4], the R (ELISA score with target / ELISA score without target) was determined as 6. In addition, in assay [1], the ELISA signal amounted to 0.3 OD630.

AEGTGDHPCGSWLRPCLHDPGPEGGGS-NHNH2 (disulfide 9-16 (inferred)) [CS-453 (…-NHNH2)]: in assay [2], the % recovery in Flow turned out to be 0% and the % recovery in elution A was 26.4%. In assay [3], the % recovery in Flow was 0%, the % recovery in elution A turned out to be 43.2%, the % recovery in elution B is 0% and the % recovery in pH2 turned out to be 0%.

Consider HACGSWFRPCHA [TN8 phage isolate 07 (SEQ ID NO: 15)], for which the R (ELISA score with target / ELISA score without target) in assay [4] came out at 6. Moreover, in assay [1], the ELISA signal came to 0.4 OD630.

FHCIGVWFCLH [TN7 phage isolate A09]: in assay [1], the ELISA signal is 0.1 OD630.

With AEGTGDFCWVFPFHHCFDPGPEGGGS-NHNH2 (disulfide 8-16 (inferred)) [CS-460 (…-NHNH2)], in assay [2], the % recovery in Flow stood at 28.4% and the % recovery in elution A came to 0%. For the same molecule, in assay [3], the % recovery in Flow was found to be 24.6%, the % recovery in elution A was determined as 28.8%, the % recovery in elution B is 0% and the % recovery in pH2 came out at 0%.

As to FCHVFHFSHCD [TN9 phage isolate 01 (SEQ ID NO: 24)], in assay [1], the ELISA signal was 0.2 OD630.

Regarding FCWVFPFNHCD [TN9 phage isolate 02 (SEQ ID NO: 27)], in assay [4], the R (ELISA score with target / ELISA score without target) was 8. Besides, the ELISA signal in assay [1] came to 0.4 OD630.

With FCWVFPFQHCA [TN9 phage isolate 09 (E09-TN9)], the R (ELISA score with target / ELISA score without target) in assay [4] worked out at 24. Besides, the ELISA signal in assay [1] came to 1.1 OD630.

Consider FCWVFNFSHCS [TN9 phage isolate 03 (SEQ ID NO: 26)], for which, in assay [4], the R (ELISA score with target / ELISA score without target) stood at 24. Besides, the ELISA signal in assay [1] was found to be 1.1 OD630.

As for HRCGSWLHPCLA [TN8 phage isolate 11/G10 (A11/G10-TN8)], the R (ELISA score with target / ELISA score without target) in assay [4] worked out at 6. For the same molecule, the ELISA signal in assay [1] came out at 0.3 OD630.

Regarding HPCGAWLRPCYN [TN8 phage isolate 08 (SEQ ID NO: 20)], the R (ELISA score with target / ELISA score without target) in assay [4] came out at 20. Further, the ELISA signal in assay [1] is 1 OD630.

With FCWVFPFNHCS [TN9 phage isolate 12 (SEQ ID NO: 28)], the R (ELISA score with target / ELISA score without target) in assay [4] is 18. In addition, the ELISA signal in assay [1] was found to be 1 OD630.

For the molecule RLCSWVSPCSA [TN7 phage isolate C5/G10], the R (ELISA score with target / ELISA score without target) in assay [4] worked out at 10. In addition, the ELISA signal in assay [1] came out at 0.5 OD630.

As to HPCGSWLRPCLH [TN8 phage isolate 10 (C10-TN8)], the R (ELISA score with target / ELISA score without target) in assay [4] is 16. In assay [1], the ELISA signal is 1 OD630.

For the molecule FCWVFAFDHCH [TN9 phage isolates 04 (B04-TN9) and 01 displaying Phe-Cys-Trp-Val-Phe-Ala-Phe-Asp-His-Cys-His], the R (ELISA score with target / ELISA score without target) in assay [4] is 24.

Consider HLCGAWFRPCDA [TN8 phage isolate 02 (E02-TN8, SEQ ID NO: 16)], for which, in assay [4], the R (ELISA score with target / ELISA score without target) is 6. Moreover, in assay [1], the ELISA signal was determined as 0.4 OD630.

Regarding HPCGSWFRPCFH [TN8 phage isolate 02 (SEQ ID NO: 14)], in assay [4], the R (ELISA score with target / ELISA score without target) stood at 16. The ELISA signal in assay [1] was determined as 0.7 OD630.

For AEGTGDFHCIGVWFCLHDPGPEGGGS-NHNH2 (disulfide 9-15 (inferred)) [CS-455 (…-NHNH2)], in assay [2], the % recovery in Flow is 61.6% and the % recovery in elution A was 1.3%. In assay [3], the % recovery in Flow worked out at 65.8%, the % recovery in elution A is 1.4%, the % recovery in elution B came out at 0% and the % recovery in pH2 came to 0%.

FGCSWLFPCPF [TN7 phage isolate A08]: in assay [4], the R (ELISA score with target / ELISA score without target) turned out to be 8. For the same molecule, in assay [1], the ELISA signal was found to be 0.4 OD630.

As to PHCNWLFPCSL [TN7 phage isolate D03], in assay [1], the ELISA signal came out at 0.2 OD630.

With FCHVFNFVHCS [TN9 phage isolate 01 (SEQ ID NO: 31)], the R (ELISA score with target / ELISA score without target) in assay [4] is 8. In assay [1], the ELISA signal came out at 0.5 OD630.

For HPCGSWFNPCAH [TN8 phage isolate 02 (SEQ ID NO: 13)], the R (ELISA score with target / ELISA score without target) in assay [4] stood at 8. Also, the ELISA signal in assay [1] turned out to be 0.3 OD630.

AEGTGDFCWVFAFDHCHDPGPEGGGS-NHNH2 (disulfide 8-16) [CS-458 (…-NHNH2)]: in assay [6], the % of total recovered in Eluate turned out to be 27%, the % of total recovered in Unbound turned out to be 59% and the % of total recovered in Wash came out at 14%. In assay [5], the % of input recovered in Eluate stood at 47%, the % of input recovered in Unbound amounted to 20% and the % of input recovered in Wash is 10%. In assay [2], the % recovery in Flow amounted to 1.4% and the % recovery in elution A was found to be 55.6%. Further, in assay [3], the % recovery in Flow was 1.8%, the % recovery in elution A was 54.3%, the % recovery in elution B stood at 0% and the % recovery in pH2 stood at 0%.
